Test results: PMC5673658, “Single-Molecule Fluorescence Methods to Study Plant Hormone Signal Transduction Pathways” (Frontiers in Plant Science, 2017)

Assays:
[1] = molecular target: phosphorylated BES1 (pBES1), BES1 with a His-tag phosphorylated by BIN2 (UniProt Q9LN63); experiment: CoSMoS (colocalization single-molecule spectroscopy, TIRFM); His-tagged pBES1 immobilised on the slide; binding percentage of 14-3-3κ with pBES1 before and after incubation for 1 h with pBKI1C at >1,000 times the concentration of pBES1
[2] = molecular target: 14-3-3κ as used in the CoSMoS competition experiment (UniProt P48348); experiment: as above
[3] = molecular target: the molecule itself; experiment: single-molecule TIRF microscopy, stepwise photobleaching; His-tagged BES1 phosphorylated by BIN2 (30 min, 37°C) immobilised on the slide; 14-3-3κ/C103S-alexa555 added; bleaching steps counted in 188 trajectories; labeling efficiency 34.7%

Chain of phosphorylated BES1 (pBES1), BES1 with a His-tag phosphorylated by BIN2 (Q9LN63 whole entry): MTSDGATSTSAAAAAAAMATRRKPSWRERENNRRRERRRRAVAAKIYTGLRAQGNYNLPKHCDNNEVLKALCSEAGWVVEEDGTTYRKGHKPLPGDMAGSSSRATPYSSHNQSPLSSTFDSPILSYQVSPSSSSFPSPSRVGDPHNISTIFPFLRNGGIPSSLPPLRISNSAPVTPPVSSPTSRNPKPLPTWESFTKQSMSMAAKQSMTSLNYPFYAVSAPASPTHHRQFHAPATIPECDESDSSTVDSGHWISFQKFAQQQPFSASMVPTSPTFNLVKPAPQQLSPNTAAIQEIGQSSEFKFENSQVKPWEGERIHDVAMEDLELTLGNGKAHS

Work on “14-3-3κ as used in the CoSMoS competition experiment (from UniProt P48348 1-248)” yielded a binding percentage of 14-3-3κ with pBES1 before pBKI1C [1] of 18%.

“phosphorylated BKI1 C terminal (pBKI1C), BKI1C phosphorylated by JKC (domain or fragment)” gave a binding percentage of 14-3-3κ with pBES1 left after pBKI1C (>1,000 times the concentration of pBES1, 1 h) [2] of 9%.

B1: alexa555-labeled 14-3-3κ/C103S (natural protein, UniProt P48348 1-248, looked up)
chain: MATTLSRDQYVYMAKLAEQAERYEEMVQFMEQLVSGATPAGELTVEERNLLSVAYKNVIGSLRAAWRIVSSIEQKEESRKNEEHVSLVKDYRSKVETELSSISSGILRLLDSHLIPSATASESKVFYLKMKGDYHRYLAEFKSGDERKTAAEDTMIAYKAAQDVAVADLAPTHPIRLGLALNFSVFYYEILNSSEKACSMAKQAFEEAIAELDTLGEESYKDSTLIMQLLRDNLTLWTSDMQEQMDEA
modifications: alexa555 (maleimide derivative) on a cysteine, site not given; labeling efficiency 34.7%
notes: 14-3-3κ (14-3-3 kappa), a plant 14-3-3 protein of the brassinosteroid signaling pathway; printed molecular weight 29073.70 D; also called 14-3-3κ/C103S-alexa555; 14-3-3κ-alexa555; source: E. coli BL21 (DE3)-plysS, purified (amylose and gel filtration columns)
In the case of B1, the “stoichiometry N” value [3] is reported as 2.
